Data from article PMC5973619.

Target: T1, Sun2 (human (endogenous in HeLa and RPE-1)), Q9UH99
T1 chain: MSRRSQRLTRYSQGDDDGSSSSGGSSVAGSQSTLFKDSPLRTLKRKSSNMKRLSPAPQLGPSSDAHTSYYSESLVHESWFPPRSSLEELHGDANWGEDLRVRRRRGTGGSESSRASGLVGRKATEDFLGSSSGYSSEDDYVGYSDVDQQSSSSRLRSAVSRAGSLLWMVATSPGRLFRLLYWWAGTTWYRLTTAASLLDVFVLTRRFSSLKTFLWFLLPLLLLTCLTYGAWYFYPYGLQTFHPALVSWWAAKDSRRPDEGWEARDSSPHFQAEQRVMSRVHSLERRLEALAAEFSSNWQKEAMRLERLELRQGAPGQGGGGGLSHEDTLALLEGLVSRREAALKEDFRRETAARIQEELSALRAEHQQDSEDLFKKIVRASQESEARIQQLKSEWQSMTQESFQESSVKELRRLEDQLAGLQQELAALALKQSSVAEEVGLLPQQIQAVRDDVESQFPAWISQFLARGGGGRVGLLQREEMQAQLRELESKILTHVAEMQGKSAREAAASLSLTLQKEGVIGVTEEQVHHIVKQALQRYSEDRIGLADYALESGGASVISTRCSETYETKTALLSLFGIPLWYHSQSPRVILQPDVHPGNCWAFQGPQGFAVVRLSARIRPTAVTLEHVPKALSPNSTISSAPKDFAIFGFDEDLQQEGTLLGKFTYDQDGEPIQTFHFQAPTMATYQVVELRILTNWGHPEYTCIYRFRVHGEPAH
Experiment: cross-linking; HeLa cells in PBS containing .5% formaldehyde for 10min room temperature before lysis; reducing SDS-PAGE and blot for Sun1 and Sun2
Conditions: remark: other sources report otherwise

stoichiometry N: 3
B1: Sun2, Q9UH99 1-717 (natural protein)
chain: MSRRSQRLTRYSQGDDDGSSSSGGSSVAGSQSTLFKDSPLRTLKRKSSNMKRLSPAPQLGPSSDAHTSYYSESLVHESWFPPRSSLEELHGDANWGEDLRVRRRRGTGGSESSRASGLVGRKATEDFLGSSSGYSSEDDYVGYSDVDQQSSSSRLRSAVSRAGSLLWMVATSPGRLFRLLYWWAGTTWYRLTTAASLLDVFVLTRRFSSLKTFLWFLLPLLLLTCLTYGAWYFYPYGLQTFHPALVSWWAAKDSRRPDEGWEARDSSPHFQAEQRVMSRVHSLERRLEALAAEFSSNWQKEAMRLERLELRQGAPGQGGGGGLSHEDTLALLEGLVSRREAALKEDFRRETAARIQEELSALRAEHQQDSEDLFKKIVRASQESEARIQQLKSEWQSMTQESFQESSVKELRRLEDQLAGLQQELAALALKQSSVAEEVGLLPQQIQAVRDDVESQFPAWISQFLARGGGGRVGLLQREEMQAQLRELESKILTHVAEMQGKSAREAAASLSLTLQKEGVIGVTEEQVHHIVKQALQRYSEDRIGLADYALESGGASVISTRCSETYETKTALLSLFGIPLWYHSQSPRVILQPDVHPGNCWAFQGPQGFAVVRLSARIRPTAVTLEHVPKALSPNSTISSAPKDFAIFGFDEDLQQEGTLLGKFTYDQDGEPIQTFHFQAPTMATYQVVELRILTNWGHPEYTCIYRFRVHGEPAH
